Test results published in publication PMC6415886.

Target: T1, INTP5 (biosimilar pegfilgrastim, N-terminally pegylated filgrastim produced by Intas) (human), P09919
T1 chain: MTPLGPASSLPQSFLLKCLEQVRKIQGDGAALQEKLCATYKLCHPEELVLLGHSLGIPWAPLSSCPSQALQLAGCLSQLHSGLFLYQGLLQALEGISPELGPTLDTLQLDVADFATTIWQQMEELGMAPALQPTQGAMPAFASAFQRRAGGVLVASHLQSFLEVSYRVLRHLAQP
Test: SEC-MALS; vortexed (stress aggregated) INTP5; TSKgel G3000 SWXL, phosphate buffer with 100 mM NaCl and 10% ethanol, 25°C; 36 μg loaded
Settings: remark: other sources report otherwise

stoichiometry N: 2
B1: INTP5 (biosimilar pegfilgrastim, N-terminally pegylated filgrastim produced by Intas), P09919-2 31-204 (ligand)
chain: T1 chain
modifications: here or on the partner: 20 kDa monomethoxypolyethylene glycol (mPEG) on the N-terminal amino group of Met1, secondary amine linkage; 20 kDa monomethoxypolyethylene glycol (mPEG) on the N-terminal amino group of Met1, secondary amine linkage
